# Laboratory results as given in IntAct's records for PubMed 31515488.
# B1: Low-density lipoprotein receptor class A domain-containing protein 1 (Homo sapiens), Q5T700 (parent)
# chain: MNKVFPQGENGYTAAESKAHPGGEAGGGHLCCSRRGACLSASLLLLLATVAALIALVTILGLPSCTPGAQACITLTNRTGFLCHDQRSCIPASGVCDGVRTCTHGEDEDESLCRDVPQSLPHFLVAHCGDPASWIYSDQKCDGTNNCGDCSDELSPVTVCPPCGPGWWRCPSTFFKYCDCIPRHLCRDHVQHCSDWSDEYACPGP
# B2: Zinc finger protein 774 (Homo sapiens), Q6NX45 (parent)
# chain: MWLGTSGKSGLPGHCLENPLQECHPAQLEEWALKGISRPSVISQPEQKEEPWVLPLQNFEARKIPRESHTDCEHQVAKLNQDNSETAEQCGTSSERTNKDLSHTLSWGGNWEQGLELEGQHGTLPGEGQLESFSQERDLNKLLDGYVGEKPMCAECGKSFNQSSYLIRHLRTHTGERPYTCIECGKGFKQSSDLVTHRRTHTGEKPYQCKGCEKKFSDSSTLIKHQRTHTGERPYECPECGKTFGRKPHLIMHQRTHTGEKPYACLECHKSFSRSSNFITHQRTHTGVKPYRCNDCGESFSQSSDLIKHQRTHTGERPFKCPECGKGFRDSSHFVAHMSTHSGERPFSCPDCHKSFSQSSHLVTHQRTHTGERPFKCENCGKGFADSSALIKHQRIHTGERPYKCGECGKSFNQSSHFITHQRIHLGDRPYRCPECGKTFNQRSHFLTHQRTHTGEKPFHCSKCNKSFRQKAHLLCHQNTHLI
# partner: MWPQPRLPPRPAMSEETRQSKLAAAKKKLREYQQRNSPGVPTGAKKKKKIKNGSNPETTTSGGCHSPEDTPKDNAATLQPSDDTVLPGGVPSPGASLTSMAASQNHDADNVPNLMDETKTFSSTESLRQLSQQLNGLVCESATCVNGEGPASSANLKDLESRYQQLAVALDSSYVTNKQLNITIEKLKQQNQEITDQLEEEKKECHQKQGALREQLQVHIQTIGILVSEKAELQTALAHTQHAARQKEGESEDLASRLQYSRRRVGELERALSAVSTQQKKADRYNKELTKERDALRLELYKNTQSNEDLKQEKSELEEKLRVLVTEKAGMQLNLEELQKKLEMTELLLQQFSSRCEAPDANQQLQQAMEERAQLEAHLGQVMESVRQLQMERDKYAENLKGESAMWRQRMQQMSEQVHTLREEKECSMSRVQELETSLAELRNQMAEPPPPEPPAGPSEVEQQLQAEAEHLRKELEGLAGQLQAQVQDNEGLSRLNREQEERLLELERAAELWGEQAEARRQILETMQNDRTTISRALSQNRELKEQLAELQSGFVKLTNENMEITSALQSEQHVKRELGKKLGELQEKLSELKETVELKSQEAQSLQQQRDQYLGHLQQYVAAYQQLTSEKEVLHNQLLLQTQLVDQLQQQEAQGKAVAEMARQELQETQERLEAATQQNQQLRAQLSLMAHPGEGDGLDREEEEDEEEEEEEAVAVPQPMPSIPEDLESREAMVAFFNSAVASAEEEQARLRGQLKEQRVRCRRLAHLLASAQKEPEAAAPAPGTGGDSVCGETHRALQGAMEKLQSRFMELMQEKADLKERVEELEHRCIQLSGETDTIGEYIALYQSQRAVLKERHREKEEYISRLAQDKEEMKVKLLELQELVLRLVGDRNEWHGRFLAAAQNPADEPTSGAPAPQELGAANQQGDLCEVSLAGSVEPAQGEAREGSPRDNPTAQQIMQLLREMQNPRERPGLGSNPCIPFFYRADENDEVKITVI
# B3: Four and a half LIM domains protein 2 (Homo sapiens), Q14192 (parent)
# chain: MTERFDCHHCNESLFGKKYILREESPYCVVCFETLFANTCEECGKPIGCDCKDLSYKDRHWHEACFHCSQCRNSLVDKPFAAKEDQLLCTDCYSNEYSSKCQECKKTIMPGTRKMEYKGSSWHETCFICHRCQQPIGTKSFIPKDNQNFCVPCYEKQHAMQCVQCKKPITTGGVTYREQPWHKECFVCTACRKQLSGQRFTARDDFAYCLNCFCDLYAKKCAGCTNPISGLGGTKYISFEERQWHNDCFNCKKCSLSLVGRGFLTERDDILCPDCGKDI
# partner: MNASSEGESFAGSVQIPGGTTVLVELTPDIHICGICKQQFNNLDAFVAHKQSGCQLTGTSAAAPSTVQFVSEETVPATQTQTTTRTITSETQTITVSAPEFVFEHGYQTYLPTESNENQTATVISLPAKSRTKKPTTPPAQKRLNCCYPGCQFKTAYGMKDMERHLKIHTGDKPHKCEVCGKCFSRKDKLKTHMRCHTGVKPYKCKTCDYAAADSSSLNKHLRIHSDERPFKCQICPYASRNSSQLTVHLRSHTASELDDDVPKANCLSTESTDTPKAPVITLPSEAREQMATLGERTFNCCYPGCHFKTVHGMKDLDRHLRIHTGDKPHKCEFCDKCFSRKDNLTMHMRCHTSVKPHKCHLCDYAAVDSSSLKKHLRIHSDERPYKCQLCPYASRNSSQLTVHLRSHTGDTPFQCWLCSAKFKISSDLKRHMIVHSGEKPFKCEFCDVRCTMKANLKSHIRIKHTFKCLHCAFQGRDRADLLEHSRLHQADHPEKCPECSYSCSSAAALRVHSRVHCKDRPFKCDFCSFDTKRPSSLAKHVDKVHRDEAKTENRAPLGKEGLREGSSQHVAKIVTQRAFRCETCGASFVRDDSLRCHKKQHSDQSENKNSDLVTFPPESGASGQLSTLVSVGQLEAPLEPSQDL
# B4: Tektin-3 (Homo sapiens), Q9BXF9 (parent)
# chain: MERVGCTLTTTYAHPRPTPTNFLPAISTMASSYRDRFPHSNLTHSLSLPWRPSTYYKVASNSPSVAPYCTRSQRVSENTMLPFVSNRTTFFTRYTPDDWYRSNLTNYQESNTSRHNSEKLRVDTSRLIQDKYQQTRKTQADTTQNLGERVNDIGFWKSEIIHELDEMIGETNALTDVKKRLERALMETEAPLQVARECLFHREKRMGIDLVHDEVEAQLLTEVDTILCCQERMKLHLDKAIAQLAANRASQHELEKDLSDKQTAYRIDDKCHHLRNTSDGVGYFRGVERVDATVSVPESWAKFTDDNILRSQSERAASAKLRDDIENLLVVTANEMWNQFNKVNLSFTNRIAETADAKNKIQTHLAKTLQEIFQTEMTIESIKKAIKDKTAFLKVAQTRLDERTRRPNIELCRDMAQLRLVNEVHEVDDTIQTLQQRLRDAEDTLQSLVHIKATLEYDLAVKANSLYIDQEKCMSMRKSYPNTLRLVGFC
# partner: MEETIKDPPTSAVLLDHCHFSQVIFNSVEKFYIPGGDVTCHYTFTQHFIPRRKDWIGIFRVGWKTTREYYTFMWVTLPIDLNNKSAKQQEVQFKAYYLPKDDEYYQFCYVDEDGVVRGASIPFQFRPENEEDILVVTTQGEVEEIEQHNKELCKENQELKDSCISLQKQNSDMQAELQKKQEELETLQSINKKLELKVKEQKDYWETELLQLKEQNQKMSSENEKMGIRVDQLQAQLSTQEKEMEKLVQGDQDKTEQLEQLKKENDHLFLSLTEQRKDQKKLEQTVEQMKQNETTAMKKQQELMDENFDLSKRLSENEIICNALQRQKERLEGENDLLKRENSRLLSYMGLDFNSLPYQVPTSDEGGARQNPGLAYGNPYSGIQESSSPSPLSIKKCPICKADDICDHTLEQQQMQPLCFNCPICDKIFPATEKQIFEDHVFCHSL
# B5: GRIP and coiled-coil domain-containing protein 1 (Homo sapiens), Q96CN9 (parent)
# chain: MEKFGMNFGGGPSKKDLLETIETQKKQLLQYQARLKDVVRAYKSLLKEKEALEASIKVLSVSHEADVGLAGVQLPGLTFPDSVDDRCSTHSEDSTGTATSLDTAASLTSTKGEFGVEDDRPARGPPPPKSEEASWSESGVSSSSGDGPFAGGEVDKRLHQLKTQLATLTSSLATVTQEKSRMEASYLADKKKMKQDLEDASNKAEEERARLEGELKGLQEQIAETKARLITQQHDRAQEQSDHALMLRELQKLLQEERTQRQDLELRLEETREALAGRAYAAEQMEGFELQTKQLTREVEELKSELQAIRDEKNQPDPRLQELQEEAARLKSHFQAQLQQEMRKTALAEDQLRQQSQVEEQRVAALENQISEVSELLGTYEKAKQKDQLAIQKLKERILQLDLENKTLALAASSRSPLDSHGEESSLDVNVLKDKMEKLKRLLQVAARKSQVTLDVEKLCDLEIMPSSEAADGEKATALYYQQELKQLKEEFERYKMRAQVVLKSKNTKDGNLGKELEAAQEQLAELKEKYISLRLSCEELEHQHQQEADDWKQELARLQQLHRQELERCQLDFRDRTLKLEEELHKQRDRALAVLTEKDLELEQLRSVALASGLPGRRSPVGGGGPGDPADTSSSDSLTQALQLAAANEPTFFLYAEQLARKEVEITSLRKQKHRLEVEVHQLQDRLLEEGERHREEVAALQSHIEKNIRDQSREGANLEYLKNIIYRFLTLPDSLGRQQTLTAILTILHFSPEEKQVIMRLPTSASWWPSGKR
# B6: Maspardin (Homo sapiens), Q9NZD8 (parent)
# chain: MGEIKVSPDYNWFRGTVPLKKIIVDDDDSKIWSLYDAGPRSIRCPLIFLPPVSGTADVFFRQILALTGWGYRVIALQYPVYWDHLEFCDGFRKLLDHLQLDKVHLFGASLGGFLAQKFAEYTHKSPRVHSLILCNSFSDTSIFNQTWTANSFWLMPAFMLKKIVLGNFSSGPVDPMMADAIDFMVDRLESLGQSELASRLTLNCQNSYVEPHKIRDIPVTIMDVFDQSALSTEAKEEMYKLYPNARRAHLKTGGNFPYLCRSAEVNLYVQIHLLQFHGTKYAAIDPSMVSAEELEVQKGSLGISQEEQ
# partner: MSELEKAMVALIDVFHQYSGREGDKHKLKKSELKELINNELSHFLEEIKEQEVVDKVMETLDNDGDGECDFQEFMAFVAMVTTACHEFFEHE
# B7: Centrosomal protein POC5 (Homo sapiens), Q8NA72 (parent)
# chain: MSSDEEKYSLPVVQNDSSRGSSVSSNLQEEYEELLHYAIVTPNIEPCASQSSHPKGELVPDVRISTIHDILHSQGNNSEVRETAIEVGKGCDFHISSHSKTDESSPVLSPRKPSHPVMDFFSSHLLADSSSPATNSSHTDAHEILVSDFLVSDENLQKMENVLDLWSSGLKTNIISELSKWRLNFIDWHRMEMRKEKEKHAAHLKQLCNQINELKELQKTFEISIGRKDEVISSLSHAIGKQKEKIELMRTFFHWRIGHVRARQDVYEGKLADQYYQRTLLKKVWKVWRSVVQKQWKDVVERACQARAEEVCIQISNDYEAKVAMLSGALENAKAEIQRMQHEKEHFEDSMKKAFMRGVCALNLEAMTIFQNRNDAGIDSTNNKKEEYGPGVQGKEHSAHLDPSAPPMPLPVTSPLLPSPPAAVGGASATAVPSAASMTSTRAASASSVHVPVSALGAGSAATAASEEMYVPRVVTSAQQKAGRTITARITGRCDFASKNRISSSLAIMGVSPPMSSVVVEKHHPVTVQTIPQATAAKYPRTIHPESSTSASRSLGTRSAHTQSLTSVHSIKVVD
# Variants of: B1
# Settings: with mall_human MALL
row,Variant,effect of a mutation on the interaction
1,S42F,with no effect

# Variants of: B1
# Settings: with olfm4_human OLFM4, Q6UX06
# Chain of olfm4_human OLFM4, Q6UX06 (Q6UX06 whole entry): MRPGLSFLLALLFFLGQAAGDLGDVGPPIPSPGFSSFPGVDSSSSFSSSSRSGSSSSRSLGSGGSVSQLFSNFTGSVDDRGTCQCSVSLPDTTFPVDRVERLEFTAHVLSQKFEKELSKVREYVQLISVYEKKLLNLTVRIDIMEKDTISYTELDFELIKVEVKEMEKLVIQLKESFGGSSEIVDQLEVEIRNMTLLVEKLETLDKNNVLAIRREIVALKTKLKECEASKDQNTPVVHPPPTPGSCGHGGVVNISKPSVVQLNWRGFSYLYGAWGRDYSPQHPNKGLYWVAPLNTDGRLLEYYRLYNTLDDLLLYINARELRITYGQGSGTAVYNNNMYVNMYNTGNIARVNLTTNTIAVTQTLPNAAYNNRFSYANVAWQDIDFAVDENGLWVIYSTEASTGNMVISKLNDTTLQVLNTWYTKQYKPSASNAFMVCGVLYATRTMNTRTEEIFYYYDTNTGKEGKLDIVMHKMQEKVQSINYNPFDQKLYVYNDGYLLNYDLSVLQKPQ
row,Variant,effect of a mutation on the interaction
1,S42F,with no effect

# Variants of: B1
# Settings: with tm190_human TMEM190, Q8WZ59
# Chain of tm190_human TMEM190, Q8WZ59 (Q8WZ59 whole entry): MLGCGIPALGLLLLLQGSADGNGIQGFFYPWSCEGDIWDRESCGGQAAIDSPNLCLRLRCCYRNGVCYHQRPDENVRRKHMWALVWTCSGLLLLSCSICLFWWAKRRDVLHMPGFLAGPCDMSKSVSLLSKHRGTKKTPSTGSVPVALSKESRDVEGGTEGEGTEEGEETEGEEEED
row,Variant,effect of a mutation on the interaction
1,E108K,with no effect

# Variants of: B1
# Settings: with tm218_human TMEM218, A2RU14
# Chain of tm218_human TMEM218, A2RU14 (A2RU14 whole entry): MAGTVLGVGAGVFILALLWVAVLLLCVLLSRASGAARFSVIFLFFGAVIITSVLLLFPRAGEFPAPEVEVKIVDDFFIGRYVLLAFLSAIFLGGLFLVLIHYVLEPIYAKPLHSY
row,Variant,effect of a mutation on the interaction
1,E108K,with no effect

# Variants of: B1
# Settings: with bni3l_human BNIP3L
row,Variant,effect of a mutation on the interaction
1,E108K,with no effect
2,G105S,with no effect

# Variants of: B1
# Settings: with tm147_human TMEM147, Q9BVK8
# Chain of tm147_human TMEM147, Q9BVK8 (Q9BVK8 whole entry): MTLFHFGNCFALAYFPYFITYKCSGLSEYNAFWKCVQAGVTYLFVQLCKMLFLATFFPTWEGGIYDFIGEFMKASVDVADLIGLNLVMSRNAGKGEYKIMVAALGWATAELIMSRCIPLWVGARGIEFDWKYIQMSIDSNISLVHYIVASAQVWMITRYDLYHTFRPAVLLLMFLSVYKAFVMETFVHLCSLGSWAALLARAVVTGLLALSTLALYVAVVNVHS
row,Variant,effect of a mutation on the interaction
1,E108K,with no effect
2,G105S,with no effect

# Variants of: B1
# Settings: with mal_human MAL
row,Variant,effect of a mutation on the interaction
1,E108K,with no effect
2,G105S,with no effect

# Variants of: B2
# Settings: with goga2_human GOLGA2, Q08379
row,Variant,effect of a mutation on the interaction
1,P65L,with no effect

# Variants of: B3
# Settings: with zf64b_human ZFP64, Q9NTW7
row,Variant,effect of a mutation on the interaction
1,A37S,with no effect
2,N95K,with no effect

# Variants of: B4
# Settings: with caco2_human CALCOCO2, Q13137
row,Variant,effect of a mutation on the interaction
1,Q129K,with no effect
2,R196Q,with no effect
3,G282A,with no effect

# Variants of: B5
# Settings: with mcrs1_human MCRS1, Q96EZ8
# Chain of mcrs1_human MCRS1, Q96EZ8 (Q96EZ8 whole entry): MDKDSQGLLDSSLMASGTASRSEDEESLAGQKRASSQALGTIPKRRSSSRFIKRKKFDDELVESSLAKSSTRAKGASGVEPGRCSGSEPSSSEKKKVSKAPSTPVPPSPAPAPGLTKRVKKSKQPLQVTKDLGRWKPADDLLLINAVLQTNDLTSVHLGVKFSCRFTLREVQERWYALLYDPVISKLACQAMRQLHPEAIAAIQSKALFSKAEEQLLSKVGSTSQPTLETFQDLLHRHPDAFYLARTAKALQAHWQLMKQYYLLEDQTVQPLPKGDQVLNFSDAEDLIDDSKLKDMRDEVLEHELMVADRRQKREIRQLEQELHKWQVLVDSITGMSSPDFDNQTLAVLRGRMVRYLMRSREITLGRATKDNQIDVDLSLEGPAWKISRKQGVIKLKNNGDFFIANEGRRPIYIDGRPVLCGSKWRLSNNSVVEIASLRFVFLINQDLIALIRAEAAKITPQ
row,Variant,effect of a mutation on the interaction
1,A274T,with no effect

# Variants of: B5
# Settings: with amol2_human AMOTL2, Q9Y2J4
# Chain of amol2_human AMOTL2, Q9Y2J4 (Q9Y2J4 whole entry): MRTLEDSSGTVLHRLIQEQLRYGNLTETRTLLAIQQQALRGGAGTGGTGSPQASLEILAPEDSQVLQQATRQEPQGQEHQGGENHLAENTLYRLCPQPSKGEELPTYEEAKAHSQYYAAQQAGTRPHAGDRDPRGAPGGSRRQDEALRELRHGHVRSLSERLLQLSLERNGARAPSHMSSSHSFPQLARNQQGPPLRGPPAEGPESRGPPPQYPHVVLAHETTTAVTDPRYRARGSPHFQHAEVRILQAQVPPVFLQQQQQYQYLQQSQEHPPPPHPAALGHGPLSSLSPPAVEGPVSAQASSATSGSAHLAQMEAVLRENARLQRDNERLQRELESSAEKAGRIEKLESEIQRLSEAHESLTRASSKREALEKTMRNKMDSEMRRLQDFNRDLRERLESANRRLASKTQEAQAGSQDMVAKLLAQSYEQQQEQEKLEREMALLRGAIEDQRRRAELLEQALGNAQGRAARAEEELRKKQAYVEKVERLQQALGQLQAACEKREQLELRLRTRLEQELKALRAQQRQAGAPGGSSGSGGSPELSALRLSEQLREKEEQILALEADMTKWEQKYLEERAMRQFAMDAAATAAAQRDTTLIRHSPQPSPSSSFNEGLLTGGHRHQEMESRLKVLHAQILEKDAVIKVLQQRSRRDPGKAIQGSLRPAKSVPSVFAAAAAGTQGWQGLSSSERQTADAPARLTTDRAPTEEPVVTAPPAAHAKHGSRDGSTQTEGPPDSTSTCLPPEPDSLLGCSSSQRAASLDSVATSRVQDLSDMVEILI
row,Variant,effect of a mutation on the interaction
1,A274T,with no effect

# Variants of: B6
# Settings: with S100B
row,Variant,effect of a mutation on the interaction
1,A180T,disrupting interaction strength
2,H272D,disrupting interaction strength

# Variants of: B7
# Settings: with cetn1_human CETN1, Q12798
# Chain of cetn1_human CETN1, Q12798 (Q12798 whole entry): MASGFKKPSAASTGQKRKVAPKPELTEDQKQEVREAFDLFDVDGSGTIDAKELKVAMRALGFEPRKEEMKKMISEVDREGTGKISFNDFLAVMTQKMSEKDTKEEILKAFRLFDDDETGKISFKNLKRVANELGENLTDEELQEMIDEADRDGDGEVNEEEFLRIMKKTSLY
row,Variant,effect of a mutation on the interaction
1,D148N,with no effect
2,I85T,with no effect
